Experimental findings from patent publication US20150368338A1 (Janssen / Centocor, published 2015) are described below.

The target of one assay is T1, IFN-α1 (human, UniProt A0A087WWS6 25-190).
T1 construct: also called Ala114 IFN-αD
Kind of assay: ProteOn.

In assay [1] the target is T2, IFN-αG (human, UniProt P01569 24-189).
T2 construct: also called IFN-α5
In words: ProteOn.

The target of assay [2] is T3, IFN-αH2 (human, UniProt P01570 24-189).
T3 construct: also called IFN-α14
In words: ProteOn.

Assay [3] addresses T4, IFN-αJ1 (human, UniProt P01567 24-189).
T4 construct: also called IFN-α7
Kind of assay: ProteOn.

The target of assay [4] is T5, IFN-αK (human, UniProt P05013 24-189).
T5 construct: also called IFN-α6
In words: ProteOn.

Assay [5] concerns the target T6, IFN-αWA (human, UniProt P05015 24-189).
T6 construct: also called IFN-α16
Kind of assay: ProteOn.

Assay [6] deals with T7, IFN-α4a (human, UniProt P05014 24-189).
T7 construct: also called IFN-αM1
Kind of assay: ProteOn.

In another assay the target is IFN-β (human, UniProt P01574 22-187). In words: ProteOn.
In another assay the target is T8, Chimp IFN-ω (chimpanzee, UniProt P05000 24-195 (human entry)).
T8 construct: also called chimpanzee IFN-ω
Kind of assay: ProteOn.

The next assay addresses T9, Cyno IFN-ω (cynomolgus, UniProt P05000 24-195 (human entry)).
T9 construct: also called cynomolgus IFN-ω
T9 chain: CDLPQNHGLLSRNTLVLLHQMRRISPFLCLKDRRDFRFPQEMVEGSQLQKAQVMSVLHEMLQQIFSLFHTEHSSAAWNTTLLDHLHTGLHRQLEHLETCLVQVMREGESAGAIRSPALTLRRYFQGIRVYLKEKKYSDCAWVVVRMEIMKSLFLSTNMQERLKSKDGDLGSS
Kind of assay: ProteOn.

Assay [7] addresses T10, IFN-αC (human, UniProt P01566 24-189).
T10 construct: also called IFN-α10
In words: ProteOn.

A further assay has as its target T11, IFN-αD (human, UniProt A0A087WWS6 25-190).
T11 construct: also called Val114 IFN-α1
T11 chain: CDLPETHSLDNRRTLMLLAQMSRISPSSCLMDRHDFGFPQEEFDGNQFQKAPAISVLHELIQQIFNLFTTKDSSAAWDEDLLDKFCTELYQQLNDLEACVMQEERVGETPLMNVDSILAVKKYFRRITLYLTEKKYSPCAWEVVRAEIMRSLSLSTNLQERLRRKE
In words: ProteOn.

The target of assay [8] is T12, IFN-αF (human, UniProt P01568 24-189).
T12 construct: also called IFN-α21
T12 chain: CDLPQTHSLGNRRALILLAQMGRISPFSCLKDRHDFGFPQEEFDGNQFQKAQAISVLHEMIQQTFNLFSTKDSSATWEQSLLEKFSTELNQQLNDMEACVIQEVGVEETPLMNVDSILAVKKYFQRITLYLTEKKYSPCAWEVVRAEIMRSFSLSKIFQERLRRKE
In words: ProteOn.

Assay [9] has as its target T2, IFN-αG. In words: cell-based or functional assay.
In assay [10] the target is T3, IFN-αH2. Kind of assay: cell-based or functional assay.
Assay [11] has as its target T4, IFN-αJ1. Kind of assay: cell-based or functional assay.
For assay [12], the target named is T5, IFN-αK. Kind of assay: cell-based or functional assay.
Assay [13] addresses T6, IFN-αWA. In words: cell-based or functional assay.
The target of assay [14] is T7, IFN-α4a. Kind of assay: cell-based or functional assay.
A further assay has as its target human IFN-ω (human, UniProt P05000 24-195). Kind of assay: cell-based or functional assay.
Assay [15] deals with T10, IFN-αC. In words: cell-based or functional assay.
Assay [16] has as its target T12, IFN-αF. Kind of assay: cell-based or functional assay.

B1: IFWM371 (antibody, IgG1, V domains shown)
VH: EVQLVQSGAEVKKPGESLKISCKGSGYSFTSYWIGWVRQMPGKGLEWMGIIDPSDSDTRYSPSFQGQVTISADKSISTAYLQWSSLKASDTAMYYCARHPGLNWAPDFDYWGQGTLVTVSS
VL: not shown
notes: Fab cloned into IgG1/kappa background; also called IFWB351; parental mAb
As a reminder, the Kd is the constant that tells how readily two partners part at equilibrium. Read a low Kd as a tighter complex. In the case of B1, the binding result with IFN-α1, with IFN-β and with IFN-αD was “no binding” throughout. In addition, the Kd was 1.11 nM in the assay with IFN-αG [1]; 0.179 nM with IFN-αH2 [2]; 10.8 nM in the assay with IFN-αJ1 [3]; 0.245 nM with IFN-αK [4]; 3.18 nM in the assay with IFN-αWA [5]; 5.39 nM in the assay with IFN-α4a [6]. Also, the Kd in the assay with Chimp IFN-ω amounted to 1.08 nM; with Cyno IFN-ω, 0.887 nM; with IFN-αC [7] it was 1.67 nM; with IFN-αF [8], 5.31 nM. Further, the “IC50 (nM), ISRE reporter gene assay” value with IFN-αG [9] stood at 12.9 nM; in the assay with IFN-αH2 [10], 9.6 nM; with IFN-αJ1 [11] it was 35.7 nM; with IFN-αK [12] it was 7.3 nM; with IFN-αWA [13], 74.2 nM; with IFN-α4a [14] it was 32.8 nM. Besides, the “IC50 (nM), ISRE reporter gene assay” value with human IFN-ω worked out at 43.9 nM; in the assay with IFN-αC [15] it was 53.9 nM; in the assay with IFN-αF [16], 16 nM.
